Like-named read-outs stand apart in the source and are kept apart here.
How the values were obtained:
[1] = molecular target: mouse IL-2Rγ endogenously expressed on MC/9 cells (mouse) (UniProt P34902); test: flow cytometry, 10 ug/ml isotype control, MC/9 cells (endogenous mouse IL-2Rg)
[2] = molecular target: human IL-2Rγ endogenously expressed on NK-92 and Jurkat cells (human) (UniProt P31785); test: flow cytometry, 10 ug/ml isotype control, NK-92 cells (endogenous human IL-2Rg)
[3] = molecular target: human IL-2Rγ endogenously expressed on NK-92 and Jurkat cells (human) (UniProt P31785); test: as above; remark: listed apart in the source
[4] = molecular target: human IL-2Rγ endogenously expressed on NK-92 and Jurkat cells (human) (UniProt P31785); test: flow cytometry, 10 ug/ml isotype control, Jurkat cells (endogenous human IL-2Rg)
[5] = molecular target: human IL-2Rγ expressed on cells (human) (UniProt P31785); test: flow cytometry, isotype control at 10 µg/ml, MFI over unstained; upper end (NK-92 by Table 9-1)
[6] = molecular target: human IL-2Rγ expressed on cells (human) (UniProt P31785); test: flow cytometry, isotype control at 10 µg/ml, MFI over unstained; lower end (Jurkat by Table 9-1)
[7] = molecular target: human IL-2Rγ expressed on cells (human) (UniProt P31785); test: flow cytometry on NK-92 cells, isotype control at 10 µg/ml, MFI over unstained; the end 2 belongs to HEK293 (negative control cells) by Table 9-2
[8] = molecular target: mouse IL-2Rγ endogenously expressed on MC/9 cells (mouse) (UniProt P34902); test: flow cytometry, secondary antibody alone (no primary), MC/9 cells (endogenous mouse IL-2Rg)
[9] = molecular target: human IL-2Rγ endogenously expressed on NK-92 and Jurkat cells (human) (UniProt P31785); test: flow cytometry, secondary antibody alone (no primary), NK-92 cells (endogenous human IL-2Rg)
[10] = molecular target: human IL-2Rγ endogenously expressed on NK-92 and Jurkat cells (human) (UniProt P31785); test: as above; remark: listed apart in the source
[11] = molecular target: human IL-2Rγ endogenously expressed on NK-92 and Jurkat cells (human) (UniProt P31785); test: flow cytometry, secondary antibody alone (no primary), Jurkat cells (endogenous human IL-2Rg)
[12] = molecular target: human IL2Rγ (endogenously expressed on cells) (human) (UniProt P31785); test: cell-based or functional assay
[13] = molecular target: human IL2Rγ (endogenously expressed on cells) (human) (UniProt P31785); test: cell-based or functional assay; remark: listed apart in the source

human IL2Rγ (endogenously expressed on cells) (human), sequence (P31785 23-369): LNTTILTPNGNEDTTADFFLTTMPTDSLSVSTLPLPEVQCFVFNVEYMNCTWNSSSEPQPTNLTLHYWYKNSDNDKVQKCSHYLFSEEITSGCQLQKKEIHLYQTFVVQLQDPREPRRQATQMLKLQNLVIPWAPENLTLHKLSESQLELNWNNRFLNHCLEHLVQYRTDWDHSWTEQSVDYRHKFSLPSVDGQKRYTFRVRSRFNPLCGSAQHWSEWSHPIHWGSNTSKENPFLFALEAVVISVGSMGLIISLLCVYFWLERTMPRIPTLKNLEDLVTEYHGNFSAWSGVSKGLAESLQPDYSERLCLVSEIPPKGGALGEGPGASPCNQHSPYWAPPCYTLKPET
human IL-2Rγ expressed on cells (human), sequence (P31785 23-369): as above
human IL-2Rγ endogenously expressed on NK-92 and Jurkat cells (human), sequence (P31785 23-369): as above
mouse IL-2Rγ endogenously expressed on MC/9 cells (mouse), sequence (P34902 23-369): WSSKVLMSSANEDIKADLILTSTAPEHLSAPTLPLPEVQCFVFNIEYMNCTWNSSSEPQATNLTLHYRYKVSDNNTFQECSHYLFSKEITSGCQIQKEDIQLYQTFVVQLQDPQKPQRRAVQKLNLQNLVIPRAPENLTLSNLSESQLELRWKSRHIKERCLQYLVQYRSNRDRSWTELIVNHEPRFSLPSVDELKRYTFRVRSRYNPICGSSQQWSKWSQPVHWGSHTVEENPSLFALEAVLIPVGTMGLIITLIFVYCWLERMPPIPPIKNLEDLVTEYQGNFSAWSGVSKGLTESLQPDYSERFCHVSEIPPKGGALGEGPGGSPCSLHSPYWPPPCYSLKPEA

REGN1945 (antibody)
Binding Ratio (Sample over unstained MFIs) [1]: 1
Raw MFI [1]: 196 MFI
Binding Ratio (Sample over unstained MFIs) [2]: 13
Raw MFI [2]: 1890 MFI
Binding Ratio (Sample over unstained MFIs) [3]: 1
Raw MFI [3]: 223 MFI
Binding Ratio (Sample over unstained MFIs) [4]: 1
Raw MFI [4]: 92 MFI
binding ratio [5]: 13
binding ratio [6]: 1
binding ratio [7]: 1

anti-human antibody conjugated to allophycocyanin (APC) (Jackson ImmunoResearch, #109-136-170)
Binding Ratio (Sample over unstained MFIs) [8]: 1
Raw MFI [8]: 173 MFI
Binding Ratio (Sample over unstained MFIs) [9]: 1
Raw MFI [9]: 210 MFI
Raw MFI [10]: 234 MFI
Binding Ratio (Sample over unstained MFIs) [11]: 1
Raw MFI [11]: 80 MFI

human IL-2 (from UniProt P60568 21-153) (ligand)
EC50; IL-2 dose response; NK92/hIL7R/STAT3-luc [12]: 0.033 nM
EC50; IL-2 dose response; NK92/hIL7R/STAT3-luc [13]: 0.045 nM

human IL-9 (from UniProt P15248 19-144) (ligand)
EC50; IL-9 dose response; NK92/hIL7R/STAT3-luc [12]: 0.02 nM
EC50; IL-9 dose response; NK92/hIL7R/STAT3-luc [13]: 0.033 nM

human IL-15 (from UniProt P40933 49-162) (ligand)
EC50; IL-15 dose response; NK92/hIL7R/STAT3-luc [12]: 0.15 nM
EC50; IL-15 dose response; NK92/hIL7R/STAT3-luc [13]: 0.23 nM

human IL-21 (from UniProt Q9HBE4 32-162) (ligand)
EC50; IL-21 dose response; NK92/hIL7R/STAT3-luc [12]: 0.0031 nM
EC50; IL-21 dose response; NK92/hIL7R/STAT3-luc [13]: 0.006 nM
